Test results reported in patent US11306156.
One block for each substance: values may come before it.

Legend:
[1] = target: D3H44 light chain Q124E_T180E (Kabat), N-terminal HA or FLAG tag; experiment: LCCA co-expression, competing light chain m36, L1:L2 DNA 1:3 normalized to 1:1, SPR tag read-out
[2] = target: D3H44 light chain S131K (Kabat), N-terminal HA or FLAG tag; experiment: LCCA co-expression, competing light chain m37, L1:L2 DNA 1:3 normalized to 1:1, SPR tag read-out
[3] = target: D3H44 light chain Q124E_T180E (Kabat), N-terminal HA or FLAG tag; experiment: LCCA co-expression, competing light chain m36, L1:L2 DNA 1:9 normalized to 1:1, SPR tag read-out
[4] = target: D3H44 light chain S131K (Kabat), N-terminal HA or FLAG tag; experiment: LCCA co-expression, competing light chain m37, L1:L2 DNA 1:9 normalized to 1:1, SPR tag read-out
[5] = target: D3H44 light chain S121K_V133G_N137K_S174R_S176R (Kabat), N-terminal HA or FLAG tag; experiment: LCCA co-expression, competing light chain m30, L1:L2 DNA 1:3 normalized to 1:1, SPR tag read-out
[6] = target: D3H44 light chain V133G_N137K_S174R_S176R (Kabat), N-terminal HA or FLAG tag; experiment: as above
[7] = target: D3H44 light chain Q124E_V133G_S176D_T178E_T180E (Kabat), N-terminal HA or FLAG tag; experiment: LCCA co-expression, competing light chain m24, L1:L2 DNA 1:3 normalized to 1:1, SPR tag read-out
[8] = target: D3H44 light chain Q124K_V133G_S176R_T178K (Kabat), N-terminal HA or FLAG tag; experiment: LCCA co-expression, competing light chain m25, L1:L2 DNA 1:3 normalized to 1:1, SPR tag read-out
[9] = target: D3H44 light chain Q124K_V133G_S176R_T178K (Kabat), N-terminal HA or FLAG tag; experiment: LCCA co-expression, competing light chain m23, L1:L2 DNA 1:3 normalized to 1:1, SPR tag read-out
[10] = target: D3H44 light chain V133G_S176D_T178D_T180E (Kabat), N-terminal HA or FLAG tag; experiment: LCCA co-expression, competing light chain m24, L1:L2 DNA 1:3 normalized to 1:1, SPR tag read-out
[11] = target: D3H44 light chain Q124K_V133G_S176R_T178K (Kabat), N-terminal HA or FLAG tag; experiment: LCCA co-expression, competing light chain m26, L1:L2 DNA 1:3 normalized to 1:1, SPR tag read-out
[12] = target: D3H44 light chain Q124E_Q160E_T180E (Kabat) with N-terminal HA or FLAG tag; experiment: LCCA, SPR read-out of light-chain tags; light-chain DNA 1:3 normalized to 1:1; competing light chain m16
[13] = target: D3H44 light chain Q124R_Q160K_T178R (Kabat) with N-terminal HA or FLAG tag; experiment: LCCA, SPR read-out of light-chain tags; light-chain DNA 1:3 normalized to 1:1; competing light chain m22
[14] = target: D3H44 light chain Q124E_Q160E_T180E (Kabat) with N-terminal HA or FLAG tag; experiment: LCCA, SPR read-out of light-chain tags; light-chain DNA 1:3 normalized to 1:1; competing light chain m18
[15] = target: D3H44 light chain Q124E_T180E (Kabat) with N-terminal HA or FLAG tag; experiment: as above
[16] = target: D3H44 light chain Q124E_Q160E_T180E (Kabat) with N-terminal HA or FLAG tag; experiment: LCCA, SPR read-out of light-chain tags; light-chain DNA 1:3 normalized to 1:1; competing light chain m20
[17] = target: D3H44 light chain Q124E_S131T_T178F_T180E (Kabat) with N-terminal HA or FLAG tag; experiment: as above
[18] = target: D3H44 light chain T178R (Kabat) with N-terminal HA or FLAG tag; experiment: LCCA, SPR read-out of light-chain tags; light-chain DNA 1:3 normalized to 1:1; competing light chain m19
[19] = target: D3H44 light chain Q124K_T178R (Kabat) with N-terminal HA or FLAG tag; experiment: LCCA, SPR read-out of light-chain tags; light-chain DNA 1:3 normalized to 1:1; competing light chain m17
[20] = target: D3H44 light chain T178R (Kabat) with N-terminal HA or FLAG tag; experiment: as above
[21] = target: D3H44 light chain Q124R_Q160K_T178R (Kabat) with N-terminal HA or FLAG tag; experiment: as above
[22] = target: tissue factor (TF) antigen (UniProt P13726); experiment: SPR (ProteOn), Fab captured via anti-penta-His, TF injected, 1:1 fit; reference wild-type D3H44 Fab; batch C (+)
[23] = target: tissue factor (TF) antigen (UniProt P13726); experiment: SPR (ProteOn), Fab captured via anti-penta-His, TF injected, 1:1 fit; batch C (+)
[24] = target: tissue factor (TF) antigen (UniProt P13726); experiment: SPR (ProteOn XPR36), Fab captured on anti-penta-His surface, TF as analyte; reference wild-type D3H44 Fab; batch C
[25] = target: tissue factor (TF) antigen (UniProt P13726); experiment: SPR (ProteOn XPR36), Fab captured on anti-penta-His surface, TF as analyte, 1:1 fit; batch C (stored about 2 months at 4 C)
[26] = target: tissue factor (TF) antigen (human (from the antibody's name 'anti-human tissue factor'; not stated for the antigen lot in the assay)) (UniProt P13726); experiment: SPR (ProteOn XPR36): Fab captured via His tag on anti-penta His surface, TF injected, 1:1 fit
[27] = target: tissue factor (TF) antigen (human (from the antibody's name 'anti-human tissue factor'; not stated for the antigen lot in the assay)) (UniProt P13726); experiment: SPR (ProteOn XPR36), Fab captured on anti-penta His, TF analyte; against wild-type D3H44 Fab
[28] = target: tissue factor (TF) antigen (UniProt P13726); experiment: SPR (ProteOn XPR36), Fab captured by His tag on anti-penta-His surface, TF injected as analyte, 1:1 fit; batch C (+)
[29] = target: tissue factor (TF) antigen (UniProt P13726); experiment: SPR (ProteOn XPR36), Fab captured by His tag on anti-penta-His surface, TF injected as analyte; against wild-type D3H44 Fab; batch C (+)
[30] = target: tissue factor (TF) antigen (UniProt P13726); experiment: SPR (ProteOn XPR36), Fab captured on anti-penta His, TF injected at 0.74-60 nM, 1:1 model; median

H1L1:H1L2 normalized median ratio [1]: 58 of 100
H1L1:H1L2 normalized median ratio [2]: 42 of 100
H1L1:H1L2 normalized median scalar value ln(r1/f1) [2]: -0.34
H1L1:H1L2 normalized median ratio [3]: 25 of 100
H1L1:H1L2 normalized median ratio [4]: 75 of 100
H1L1:H1L2 normalized median scalar value ln(r1/f1) [4]: 1.1
Substance: D3H44 Fab heavy chain K145T_Q179E (Kabat), C-terminal ABD2-His6 tag

H1L1:H1L2 normalized median ratio [5]: 27 of 100
H1L1:H1L2 normalized median scalar value ln(r1/f1) [5]: -0.97
Substance: D3H44 Fab heavy chain L124E_A125S_H172T_K228D (Kabat), C-terminal ABD2-His6 tag

H1L1:H1L2 normalized median ratio [6]: 53 of 100
H1L1:H1L2 normalized median scalar value ln(r1/f1) [6]: 0.12
Substance: D3H44 Fab heavy chain L124E_H172T (Kabat), C-terminal ABD2-His6 tag

H1L1:H1L2 normalized median ratio [7]: 17 of 100
H1L1:H1L2 normalized median ratio [8]: 83 of 100
H1L1:H1L2 normalized median scalar value ln(r1/f1) [8]: 1.59
Substance: D3H44 Fab heavy chain L124E_L143D_K145M (Kabat), C-terminal ABD2-His6 tag

H1L1:H1L2 normalized median ratio [7]: 21 of 100
H1L1:H1L2 normalized median ratio [9]: 81 of 100
H1L1:H1L2 normalized median scalar value ln(r1/f1) [9]: 1.44
H1L1:H1L2 normalized median ratio [8]: 79 of 100
H1L1:H1L2 normalized median scalar value ln(r1/f1) [8]: 1.31
Substance: D3H44 Fab heavy chain L124E_L143D_K145T (Kabat), C-terminal ABD2-His6 tag

H1L1:H1L2 normalized median ratio [10]: 37 of 100
H1L1:H1L2 normalized median ratio [11]: 63 of 100
H1L1:H1L2 normalized median scalar value ln(r1/f1) [11]: 0.55
H1L1:H1L2 normalized median ratio [9]: 88 of 100
H1L1:H1L2 normalized median scalar value ln(r1/f1) [9]: 1.95
Substance: D3H44 Fab heavy chain L124E_L143E_K145M (Kabat), C-terminal ABD2-His6 tag

H1L1:H1L2 normalized median ratio [10]: 38 of 100
H1L1:H1L2 normalized median ratio [11]: 62 of 100
H1L1:H1L2 normalized median scalar value ln(r1/f1) [11]: 0.43
H1L1:H1L2 normalized median ratio [9]: 89 of 100
H1L1:H1L2 normalized median scalar value ln(r1/f1) [9]: 2.08
Substance: D3H44 Fab heavy chain L124E_L143E_K145T (Kabat), C-terminal ABD2-His6 tag

H2L2:H2L1 normalized median ratio [5]: 5 of 100
Substance: D3H44 Fab heavy chain L124R_A125R_H172R (Kabat), C-terminal ABD2-His6 tag

H2L2:H2L1 normalized median ratio [7]: 84 of 100
H2L2:H2L1 normalized median ratio [8]: 16 of 100
Substance: D3H44 Fab heavy chain L124R_D146N_Q179K (Kabat), C-terminal ABD2-His6 tag

H2L2:H2L1 normalized median ratio [6]: 8 of 100
Substance: D3H44 Fab heavy chain L124R_H172R (Kabat), C-terminal ABD2-His6 tag

H2L2:H2L1 normalized median ratio [10]: 93 of 100
H2L2:H2L1 normalized median ratio [11]: 7 of 100
H2L2:H2L1 normalized median ratio [9]: 24 of 100
Substance: D3H44 Fab heavy chain L124R_S186K (Kabat), C-terminal ABD2-His6 tag

H2L2:H2L1 normalized median ratio [12]: 83%
H2L2:H2L1 normalized median ratio [13]: 4%
H2L2:H2L1 normalized median ratio [14]: 91%
H2L2:H2L1 normalized median ratio [15]: 96%
H2L2:H2L1 normalized median ratio [16]: 81%
H2L2:H2L1 normalized median ratio [17]: 96%
H2L2:H2L1 normalized median ratio [18]: 4%
H2L2:H2L1 normalized median ratio [19]: 17%
H2L2:H2L1 normalized median ratio [20]: 9%
H2L2:H2L1 normalized median ratio [21]: 19%
Substance: D3H44 Fab heavy chain S186K (Kabat) with C-terminal ABD2-His6 tag

H2L2:H2L1 normalized median ratio [1]: 98 of 100
H2L2:H2L1 normalized median ratio [2]: 2 of 100
H2L2:H2L1 normalized median ratio [3]: 93 of 100
H2L2:H2L1 normalized median ratio [4]: 7 of 100
Substance: D3H44 Fab heavy chain S186K (Kabat), C-terminal ABD2-His6 tag

change in median KD compared to wild type, -(log(KD design)-log(KD wt)) [22]: 0.02
Kd [23]: 0.15 nM
Substance: D3H44 Fab heterodimer (H1L1) of LCCA Set # 9851: H1 S186K, L1 Q124E_T178E_T180E

change in median KD compared to wild type, -(log(KD design)-log(KD wt)) [22]: 0.41
Kd [23]: 0.06 nM
Substance: D3H44 Fab heterodimer (H1L1) of LCCA Sets # 9829, 9830: H1 S186K, L1 Q124E_Q160E_T178E

change in median KD compared to wild type, -(log(KD design)-log(KD wt)) [22]: 0.05
Kd [23]: 0.14 nM
Substance: D3H44 Fab heterodimer (H1L1) of LCCA Sets # 9979, 9983: H1 Q179K, L1 S131E

Change in median values of KD of h1l1 Fab heterodimer compared to wild type (-(log(KD design)-log(KD wt))) [24]: 0.05
Kd [25]: 0.14 nM
Substance: D3H44 Fab heterodimer H1 S186K / L1 S131E

Change in median values of KD of h1l1 Fab heterodimer compared to wild type (-(log(KD design)-log(KD wt))) [24]: 0.2
Kd [25]: 0.1 nM
Substance: D3H44 Fab heterodimer H1 S188L_V190Y / L1 V133S

Kd [26]: 0.16 nM
Change in median values of KD of h1l1 Fab heterodimer compared to wild type (-(log(KD design)-log(KD wt))) [27]: -0.01
Substance: D3H44 Fab heterodimer, H1 A139C_L143E_K145T_Q179E / L1 F116C_Q124R_T178R (H1L1 Fab of LCCA set 9049)

Kd [26]: 0.2 nM
Change in median values of KD of h1l1 Fab heterodimer compared to wild type (-(log(KD design)-log(KD wt))) [27]: -0.12
Substance: D3H44 Fab heterodimer, H1 L124E_L143E_K145T / L1 Q124K_V133G_Q160K_S176R (H1L1 Fab of LCCA set 9277)

Kd [28]: 0.14 nM
change in median KD compared to wild type, -(log(KD design)-log(KD wt)) [29]: 0.05 log
Substance: D3H44 H1L1 Fab heterodimer of LCCA Set # 9648 (H1 L143E_K145T_Q179E, L1 Q124K_T178R)

Kd [28]: 0.14 nM
change in median KD compared to wild type, -(log(KD design)-log(KD wt)) [29]: 0.05 log
Substance: D3H44 H1L1 Fab heterodimer of LCCA Set # 9982 (H1 S186K, L1 S131E)

Kd [28]: 0.14 nM
change in median KD compared to wild type, -(log(KD design)-log(KD wt)) [29]: 0.06 log
Substance: D3H44 H1L1 Fab heterodimer of LCCA Sets # 9888 and 9887 (H1 S186R, L1 Q124E_T178E)

Kd [30]: 0.157 nM
Substance: wild-type D3H44 Fab heterodimer where the light chain contains a FLAG tag
